Measured values: US20220153819A1 (Regeneron, published 2022)

What was measured:
[1] = target: T1, Influenza A group 1 HA Foldon.6×His (Influenza A virus (H1N1)); assay: SPR (Biacore 8k), 37C; HA Foldon-6xHis captured via anti-His, bsAb injected
T1 construct: also called HA-6×His; HA.6×His

[2] = target: T1, Influenza A group 1 HA Foldon.6×His; assay: SPR (Biacore 8k), 25C; HA Foldon-6xHis captured via anti-His, bsAb injected

B1: REGN6093, anti-Influenza HA x anti-C1q bispecific antibody (bispecific antibody, V domains shown)
VH 1: QVHLVQSGPEVKKPGSSVKVSCKASGVTFISHAISWVRQAPGQGLEWVGGIIAIFGTTNYAQKFQGRVTVTTDKSTNTVYMELSRLRSEDTAIYYCARGETYYEGNFDFWGQGTLVTVSS
VH 2: EVQLVESGGGVVQPGGSLRLSCAASGFSLDDYAMHWVRQTPGKGLEWVSLISGDGSRTSYADSVKGRFTISRDNSKNSLYLKMNSLRTEDTALYYCTKDPHNSNWFDPWGQGTLVTVSS
VL: not shown
notes: also called FluA group 1 x C1q bispecific; anti-HA x anti-C1q
B1 showed a Kd [1] of 0.519 nM, a koff [1] of 5.15e-05 s⁻¹ and a kon [1] of 99400 M⁻¹ s⁻¹. For the same binder, the t½ [1] was 3.74 h, the Kd [2] was 1.11 nM and the koff [2] was 0.000175 s⁻¹. For the same binder, the kon [2] was 158000 M⁻¹ s⁻¹ and the t1/2 [2] was 1.1 h.
